Reference: publication PMC5935693

Target: XPO1 (human) (human) (UniProt O14980)
Assay: other fluorescence titration; competition differential bleaching: MBP-NES competes with the probe FITC-NESPKI for XPO1, in the presence of excess RanGTP (GSP1 179ter, Q71L); analysed in PALMIST

Sequence of UniProt O14980 (O14980 whole entry): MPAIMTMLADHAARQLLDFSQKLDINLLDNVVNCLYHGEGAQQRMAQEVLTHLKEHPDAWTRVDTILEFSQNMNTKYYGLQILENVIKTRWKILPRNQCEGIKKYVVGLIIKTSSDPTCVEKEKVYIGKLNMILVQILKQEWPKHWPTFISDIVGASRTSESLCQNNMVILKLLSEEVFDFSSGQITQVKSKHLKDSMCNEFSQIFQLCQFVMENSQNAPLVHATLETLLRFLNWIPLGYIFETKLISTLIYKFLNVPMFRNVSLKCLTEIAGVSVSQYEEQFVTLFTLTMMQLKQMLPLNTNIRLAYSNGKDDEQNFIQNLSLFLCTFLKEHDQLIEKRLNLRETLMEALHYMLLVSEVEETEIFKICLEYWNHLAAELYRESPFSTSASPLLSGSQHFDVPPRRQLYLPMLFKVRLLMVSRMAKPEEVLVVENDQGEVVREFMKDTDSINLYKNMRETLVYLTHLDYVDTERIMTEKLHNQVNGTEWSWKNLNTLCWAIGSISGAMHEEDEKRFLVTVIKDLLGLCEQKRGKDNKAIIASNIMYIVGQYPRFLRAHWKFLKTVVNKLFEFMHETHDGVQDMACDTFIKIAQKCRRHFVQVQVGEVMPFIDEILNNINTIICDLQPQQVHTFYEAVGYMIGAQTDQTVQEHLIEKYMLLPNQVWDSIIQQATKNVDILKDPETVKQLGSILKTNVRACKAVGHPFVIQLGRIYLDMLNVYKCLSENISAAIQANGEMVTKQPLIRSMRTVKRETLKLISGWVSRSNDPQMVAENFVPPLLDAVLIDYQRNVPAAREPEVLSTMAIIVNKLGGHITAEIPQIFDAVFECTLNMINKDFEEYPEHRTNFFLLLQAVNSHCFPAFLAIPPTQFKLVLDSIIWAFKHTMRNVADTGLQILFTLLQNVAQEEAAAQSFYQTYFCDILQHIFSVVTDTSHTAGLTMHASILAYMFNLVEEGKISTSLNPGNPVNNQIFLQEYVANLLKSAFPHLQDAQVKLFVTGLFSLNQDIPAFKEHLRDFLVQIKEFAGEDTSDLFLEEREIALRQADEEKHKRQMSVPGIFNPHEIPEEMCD

Kd: 13 µM
Substance: MBP-NESTDP (maltose binding protein fused to the putative NES peptide of TDP-43, residues 236-253)
